Measurements published in patent US20200247894A1 (Regeneron, published 2020).
Positions count from the first letter of the chain named. One block for each binder: values may come before it.

Key:
[1] = molecular target: T1, Macaca fascicularis IL2Rγ extracellular domain expressed with a C-terminal myc-myc-hexahistidine tag (Macaca fascicularis); test: SPR Biacore 4000, mAb captured by anti-hFc, HBS-ET, 25C
T1 construct: also called mfIL-2Rg-MMH; mfIL-2RG-MMH
T1 chain: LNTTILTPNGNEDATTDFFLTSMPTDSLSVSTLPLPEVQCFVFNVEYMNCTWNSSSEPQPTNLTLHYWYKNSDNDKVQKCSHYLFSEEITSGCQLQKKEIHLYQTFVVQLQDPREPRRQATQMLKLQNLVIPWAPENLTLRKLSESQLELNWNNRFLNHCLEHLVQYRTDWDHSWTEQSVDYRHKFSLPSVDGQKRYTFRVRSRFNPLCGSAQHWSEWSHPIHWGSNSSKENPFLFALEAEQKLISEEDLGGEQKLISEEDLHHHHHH
Method in brief: (§1)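 First, a mouse anti-human Fc antibody was amine-coupled to the chip; test mAbs were then captured and IL2Rγ reagents bound in HBS-ET, pH 7.4. Dissociation was tracked for 8-10 minutes before 1:1 fitting of the sensorgrams.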

[2] = molecular target: T2, Human IL2Rγ extracellular domain expressed with a C-terminal myc-myc-hexahistidine tag (human); test: SPR Biacore 4000, mAb captured by anti-hFc, HBS-ET, 25C; 25 C
T2 construct: also called hIL-2Rg-MMH; hIL-2RG-MMH
T2 chain: T1 chain with A14T, T16A, S22T, R141H, S228T
Procedure: (§2) Equilibrium dissociation constants (KD values) for IL-2Rγ binding to purified anti-IL2Rγ monoclonal antibodies were determined using a Biacore 4000 instrument equipped with a real-time surface plasmon resonance biosensor. All binding studies were performed in 10 mM HEPES, 150 mM NaCl, 3 mM EDTA, and 0.05% v/v Surfactant Tween-20, pH 7.4 (HBS-ET) running buffer at 25° C. and 37° C. The Biacore sensor surface was first derivatized by amine coupling with a monoclonal mouse anti-human Fc antibody (GE, # BR-1008-39) to capture anti-IL2Rγ monoclonal antibodies.
(§3) The dissociation of monoclonal antibody bound IL2Rγ reagents were monitored for 8-10 minutes in HBS-ET running buffer. Kinetic association (kₐ) and dissociation (kd) rate constants were determined by fitting the real-time sensorgrams to a 1:1 binding model using Scrubber 2.0c curve fitting software. Binding dissociation equilibrium constants (KD) and dissociative half-lives (t_{1/2}) were calculated from the kinetic rate constants as: […]

[3] = molecular target: T1, Macaca fascicularis IL2Rγ extracellular …; test: SPR Biacore 4000, mAb captured by anti-hFc, 37C, dissociation in PBS-T pH 7.4
Method in brief: (§4)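 Capture format uses immobilised mouse anti-human Fc on CM5 to hold each human IgG4 Fc antibody. Off-rates are measured over a 6 min PBS-T dissociation phase and fitted as kd with a 1:1 binding model.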

[4] = molecular target: T1, Macaca fascicularis IL2Rγ extracellular …; test: SPR Biacore 4000, mAb captured by anti-hFc, 37C, dissociation in PBS-T pH 6.0
Method in brief: as §4

[5] = molecular target: T3, Human IL2Rγ extracellular domain expressed with a C-terminal mouse IgG2a Fc tag (human); test: SPR Biacore 4000, anti-hFc-captured mAb, 25 C
T3 construct: whole entry is the Fc-fused construct; also called hIL-2Rg-mFc
T3 chain: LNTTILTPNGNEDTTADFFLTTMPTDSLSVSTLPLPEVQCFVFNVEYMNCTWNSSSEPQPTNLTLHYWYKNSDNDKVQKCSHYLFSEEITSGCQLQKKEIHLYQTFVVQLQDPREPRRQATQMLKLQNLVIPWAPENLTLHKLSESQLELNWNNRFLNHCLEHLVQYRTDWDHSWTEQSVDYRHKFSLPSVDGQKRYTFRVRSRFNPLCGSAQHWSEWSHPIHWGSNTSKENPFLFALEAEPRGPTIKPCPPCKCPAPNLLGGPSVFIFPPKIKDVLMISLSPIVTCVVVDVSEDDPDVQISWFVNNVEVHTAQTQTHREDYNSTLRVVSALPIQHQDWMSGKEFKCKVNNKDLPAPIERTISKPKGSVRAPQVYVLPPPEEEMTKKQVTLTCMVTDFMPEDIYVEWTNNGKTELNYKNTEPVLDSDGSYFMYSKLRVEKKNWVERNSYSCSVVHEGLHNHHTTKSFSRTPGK
Method in brief: as §1

[6] = molecular target: T4, Mouse IL2Rγ extracellular domain expressed with a C-terminal myc-myc-hexahistidine tag (mouse); test: SPR Biacore 4000, anti-hFc-captured mAb, 25 C
T4 construct: whole entry is the tagged construct; also called mIL-2Rg-MMH
T4 chain: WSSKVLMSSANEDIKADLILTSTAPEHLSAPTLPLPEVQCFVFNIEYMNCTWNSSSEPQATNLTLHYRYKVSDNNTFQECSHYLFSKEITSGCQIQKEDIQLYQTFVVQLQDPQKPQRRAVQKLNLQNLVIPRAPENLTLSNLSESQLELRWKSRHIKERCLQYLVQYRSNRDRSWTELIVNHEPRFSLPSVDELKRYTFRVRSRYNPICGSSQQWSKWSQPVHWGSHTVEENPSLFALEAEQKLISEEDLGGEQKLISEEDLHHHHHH
Method in brief: as §1

[7] = molecular target: T5, Rat IL2Rγ extracellular domain expressed with a C-terminal myc-myc-hexahistidine tag (rat); test: SPR Biacore 4000, anti-hFc-captured mAb, 25 C
T5 construct: whole entry is the tagged construct; also called rIL-2Rg-MMH; rat IL-2Rg-MMH
T5 chain: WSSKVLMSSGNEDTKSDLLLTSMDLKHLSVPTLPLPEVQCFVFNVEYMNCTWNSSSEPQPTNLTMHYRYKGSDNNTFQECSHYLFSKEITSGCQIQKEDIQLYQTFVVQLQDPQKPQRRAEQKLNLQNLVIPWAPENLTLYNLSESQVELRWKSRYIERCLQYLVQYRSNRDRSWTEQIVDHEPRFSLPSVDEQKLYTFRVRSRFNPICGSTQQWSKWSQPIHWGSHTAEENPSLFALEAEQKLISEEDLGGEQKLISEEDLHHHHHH
Method in brief: as §1

[8] = molecular target: T6, Macaca fascicularis IL2Rγ extracellular domain expressed with a C-terminal myc-myc-hexahistidine tag (Macaca fascicularis); test: SPR Biacore 4000, anti-hFc-captured mAb, 37 C
T6 construct: whole entry is the tagged construct; also called mfIL-2Rg-MMH
T6 chain: T1 chain
Method in brief: as §1

[9] = molecular target: T3, Human IL2Rγ extracellular domain …; test: SPR Biacore 4000, anti-hFc-captured mAb, 37 C
Method in brief: as §1

[10] = molecular target: T4, Mouse IL2Rγ extracellular domain …; test: SPR Biacore 4000, anti-hFc-captured mAb, 37 C
Method in brief: as §1

[11] = molecular target: T5, Rat IL2Rγ extracellular domain …; test: SPR Biacore 4000, anti-hFc-captured mAb, 37 C
Method in brief: as §1

[12] = molecular target: T3, Human IL2Rγ extracellular domain …; test: SPR Biacore 4000, anti-hFc-captured mAb, 37 C; computed with kd fixed at 1.00E-05
Procedure: as §2, §3

[13] = molecular target: T3, Human IL2Rγ extracellular domain …; test: SPR Biacore 4000, anti-hFc-captured mAb, 37 C; no dissociation observed, kd manually fixed at 1.00E-05

100 nM Ag Bound [1]: 12 RU
Kd [1]: 238 nM
koff [1]: 0.00686 s⁻¹
kon [1]: 28800 M⁻¹ s⁻¹
t1/2 [1]: 1.7 min
Kd [2]: 96.5 nM
koff [2]: 0.00555 s⁻¹
kon [2]: 57500 M⁻¹ s⁻¹
t1/2 [2]: 2.1 min
100 nM Ag Bound (RU) [3]: 27 RU
koff [3]: 0.00596 s⁻¹
t1/2 [3]: 1.9 min
100 nM Ag Bound (RU) [4]: 22 RU
koff [4]: 0.0129 s⁻¹
t1/2 [4]: 0.9 min
B1: H4H12927P2 (antibody, human IgG4 S228P, kappa, V domains shown)
VH: EVQLVESGGGVVRPGGSLRLSCATSGFTFDDYGMSWVRQVPGKGLEWVSSVNRNGGTTDYADSVKGRFTISRDNAKRSLFLQMNSLRAEDTALYHCATGELFFDYWGQGTLVTVSS
VL: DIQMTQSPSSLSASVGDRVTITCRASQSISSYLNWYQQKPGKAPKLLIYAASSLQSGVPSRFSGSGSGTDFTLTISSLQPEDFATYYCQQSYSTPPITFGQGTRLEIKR
notes: anti-IL2Rγ monoclonal antibody expressed with human IgG4 Fc

50 nM Ag Bound [5]: 69 RU
Kd [5]: 0.0447 nM
koff [5]: 1.55e-05 s⁻¹
kon [5]: 347000 M⁻¹ s⁻¹
t1/2 [5]: 746 min
100 nM Ag Bound [6]: 1 RU
binding result [6]: no binding (tested: 100 nM)
100 nM Ag Bound [7]: 1 RU
binding result [7]: no binding (tested: 100 nM)
100 nM Ag Bound [8]: 29 RU
Kd [8]: 4.63 nM
koff [8]: 0.00171 s⁻¹
kon [8]: 369000 M⁻¹ s⁻¹
t1/2 [8]: 7 min
50 nM Ag Bound [9]: 39 RU
kon [9]: 238000 M⁻¹ s⁻¹
100 nM Ag Bound [10]: 0 RU
100 nM Ag Bound [11]: 2 RU
Kd [12]: ≤ 0.042 nM
t1/2 [12]: ≥ 1160 min
koff [13]: ≤ 1e-05 s⁻¹
B2: H4H12889P (antibody, human IgG4 S228P, kappa, V domains shown)
VH: EVQLVESGGGLVQPGGSLRLSCAASGFIFSSYEMHWVRQAPGKGLEWISYISSSGTTIYYADSVKGRFTISRDNAKNSLYLHMNSLRAEDTAVYYCTRARITGTFDVFDIWGQGTMVTVSS
VL: DIQMTQSPSSLSASVGDRVTITCRASQSISSYLNWYQQKPGKAPKLLIFAASNLQSGVPSRFSGSRSGTDFTLTISSLQPEDFATYYCQQNYNIPYTFGQGTKLEIKR
notes: fully human anti-IL2Rgamma mAb, human IgG4 Fc; also called REGN7257

50 nM Ag Bound [5]: 15 RU
Kd [5]: 4.18 nM
koff [5]: 8.35e-05 s⁻¹
kon [5]: 20000 M⁻¹ s⁻¹
t1/2 [5]: 138 min
100 nM Ag Bound [6]: 1 RU
binding result [6]: no binding (tested: 100 nM)
100 nM Ag Bound [7]: 1 RU
binding result [7]: no binding (tested: 100 nM)
100 nM Ag Bound [8]: 43 RU
Kd [8]: 12.4 nM
koff [8]: 0.00116 s⁻¹
kon [8]: 93300 M⁻¹ s⁻¹
t1/2 [8]: 10 min
50 nM Ag Bound [9]: 14 RU
kon [9]: 33000 M⁻¹ s⁻¹
100 nM Ag Bound [10]: 0 RU
100 nM Ag Bound [11]: 3 RU
Kd [12]: ≤ 0.303 nM
t1/2 [12]: ≥ 1160 min
koff [13]: ≤ 1e-05 s⁻¹
B3: H4H12874P (antibody, human IgG4 S228P, kappa, V domains shown)
VH: QVQLVESGGGVVQPGRSLRLSCAASGFNFRNFGMHWVRQAPGKGLEWVAGILYDGSSKYYADSVKDRFTISRDNSKNTLFLQMNSLRAEDTAMYYCAKEEDTAMVPFDSWGPGTLVTVSS
VL: DIQLTQSPSFLSASVGDRVTITCWASQGISSYLAWYQQKPGKAPTLLIYAASTLQSGVPSRFSGSGSGTEFTLTISSLQPEDFASYYCQQLKSYPLTFGGGTKVEIKR
notes: fully human anti-IL2Rgamma mAb, human IgG4 Fc

50 nM Ag Bound [5]: 82 RU
Kd [5]: 0.0564 nM
koff [5]: 1.75e-05 s⁻¹
kon [5]: 310000 M⁻¹ s⁻¹
t1/2 [5]: 661 min
100 nM Ag Bound [6]: 2 RU
binding result [6]: no binding (tested: 100 nM)
100 nM Ag Bound [7]: 3 RU
binding result [7]: no binding (tested: 100 nM)
100 nM Ag Bound [8]: 44 RU
Kd [8]: 4.18 nM
koff [8]: 0.00129 s⁻¹
kon [8]: 308000 M⁻¹ s⁻¹
t1/2 [8]: 9 min
50 nM Ag Bound [9]: 47 RU
kon [9]: 223000 M⁻¹ s⁻¹
100 nM Ag Bound [10]: 2 RU
100 nM Ag Bound [11]: 5 RU
Kd [12]: ≤ 0.0448 nM
t1/2 [12]: ≥ 1160 min
koff [13]: ≤ 1e-05 s⁻¹
B4: H4H12922P2 (antibody, human IgG4 S228P, kappa, V domains shown)
VH: QVQLVESGGGVVKPGGSLRLSCAASGFTFSNSGIHWVRQAPGKGLEWVALISYAGSNKYYADSVKGRFTISRDNSKNTLSLQMNSLRAEDTAVYYCAKEVWTGTYDSFDMWGRGTMVTVSS
VL: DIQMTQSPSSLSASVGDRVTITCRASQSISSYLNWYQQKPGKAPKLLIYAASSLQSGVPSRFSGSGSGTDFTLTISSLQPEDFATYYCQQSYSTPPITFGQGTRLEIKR
notes: fully human anti-IL2Rgamma mAb, human IgG4 Fc; also called REGN7256

50 nM Ag Bound [5]: 115 RU
Kd [5]: 0.0853 nM
koff [5]: 3.41e-05 s⁻¹
kon [5]: 399000 M⁻¹ s⁻¹
t1/2 [5]: 339 min
100 nM Ag Bound [6]: 2 RU
binding result [6]: no binding (tested: 100 nM)
100 nM Ag Bound [7]: 1 RU
binding result [7]: no binding (tested: 100 nM)
100 nM Ag Bound [8]: 63 RU
Kd [8]: 5.51 nM
koff [8]: 0.00147 s⁻¹
kon [8]: 266000 M⁻¹ s⁻¹
t1/2 [8]: 8 min
50 nM Ag Bound [9]: 93 RU
kon [9]: 537000 M⁻¹ s⁻¹
100 nM Ag Bound [10]: 0 RU
100 nM Ag Bound [11]: 0 RU
Kd [12]: ≤ 0.0186 nM
t1/2 [12]: ≥ 1160 min
koff [13]: ≤ 1e-05 s⁻¹
B5: H4H12863P (antibody, human IgG4 S228P, kappa, V domains shown)
VH: QVQLVESGGGVVQPGRSLRLSCTASGFTFRSYDMYWVRQAPGKGLEWVSVITYDGNNKYYADSVKGRFTISRDNSKNTLFLQMSSLRPEDTAVYYCAKRGLIWVGESFDYWGQGTLVTVSS
VL: DIQMTQSPSTLSASVGDRVTITCRASQSINSWLAWYQQKPGKAPNLLIYKASSLESGVPSRFSGSGSGTEFTLTISSLQPDDFATYYCQQYKSYSWTFGQGTKVEIKR
notes: as for B3
